Measured values published in US20140065163A1 (MERCK SERONO S A, published 2014).
Positions count from the first letter of the chain named. Numbers in names are those of the source. Read-outs that look alike come from different tables or passages of the source.

T1: macaca GM-CSF (Macaca mulatta (identical in Macaca …, UniProt Q0MUT8 18-144 (Chlorocebus aethiops entry), limits assumed))
T1 chain: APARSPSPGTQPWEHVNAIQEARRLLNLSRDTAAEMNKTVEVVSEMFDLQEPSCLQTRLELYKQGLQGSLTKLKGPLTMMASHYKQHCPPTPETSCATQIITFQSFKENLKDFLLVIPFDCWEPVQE

B1: MSB0010599 4K21 (4K21 hVH S55R-T62S hVL N28I-H34S-N53R-H93Y) (antibody, V domains shown)
VH: EVQLVESGGGLVQPGGSLRLSCAASGFAFSAYDMSWVRQAPGKRLELVAYISSGGRSFYYPDSVKGRFTISRDNAKNSLYLQMNSLRAEDTAVYYCTRHLGFDYWGQGTLVTVSS
VL: DIVMTQSPLSLPVTPGEPASISCRSSQSLVNSIGNTYLSWYLQKPGQSPQLLIYKVSRRFSGVPDRFSGSGSGTDFTLKISRVEAEDVGVYYCSQSTYVPPTFGQGTKVEIK
notes: IgG
B2: humanized parental 4K21 hVH hVL + H93Y (MS100305-A) (antibody, V domains shown)
VH: B1 VH with R56S, S63T
VL: B1 VL with I33N, S39H, R58N
B3: MSB0010600 4K21 (4K21 hVH S55R-T62S hVL S27eY-N28I-H34S-N53R-H93Y) (antibody, V domains shown)
VH: B1 VH
VL: B1 VL with S32Y
B4: MSB0010595 4K21 (4K21 hVH S56V-T62S hVL S27eY-N28I-H34S-N53R-H93Y) (antibody, V domains shown)
VH: B1 VH with R56S, S57V
VL: B1 VL with S32Y
B5: MSB0010602 4K21 (4K21 hVH S55K-T62S hVL S27eY-N28I-H34S-N53R-H93Y) (antibody, V domains shown)
VH: B1 VH with R56K
VL: B1 VL with S32Y
notes: IgG
B6: MSB0010603 4K21 (4K21 hVH S56V-T62S hVL N28I-H34S-N53R-H93Y) (antibody, V domains shown)
VH: B1 VH with R56S, S57V
VL: B1 VL
notes: IgG

Key:
macaca GM-CSF [1] = target: T1, macaca GM-CSF; test: cell-based or functional assay
human GM-CSF I117 [2] = target: T2, human GM-CSF I117 (human, UniProt P04141 18-144); test: cell-based or functional assay
Target sequence in this assay (P04141 18-144 limits assumed): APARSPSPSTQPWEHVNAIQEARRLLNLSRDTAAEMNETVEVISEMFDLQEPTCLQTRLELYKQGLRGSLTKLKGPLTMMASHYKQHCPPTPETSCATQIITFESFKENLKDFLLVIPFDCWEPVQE

human GM-CSF T117 [3] = target: T3, human GM-CSF T117 (human, UniProt P04141 18-144); test: cell-based or functional assay
Target sequence in this assay (P04141 18-144 I117T limits assumed): as the sequence (P04141 18-144 limits assumed) above, with I100T counted along it

human GM-CSF A117 mutant = target: T4, human GM-CSF A117 mutant (human, UniProt P04141 18-144); test: competition ELISA: antibody on coated wild-type human GM-CSF, competitor soluble human GM-CSF A117; single condition, competitor concentration not shown
T4 construct: also called hGM-CSF A117; A117 protein

macaca GM-CSF [4] = target: T1, macaca GM-CSF; test: cell-based or functional assay
human GM-CSF I117 [5] = target: T2, human GM-CSF I117; test: cell-based or functional assay; remark: listed apart in the source
human GM-CSF T117 [6] = target: T3, human GM-CSF T117; test: cell-based or functional assay; remark: listed apart in the source
macaca GM-CSF [7] = target: T1, macaca GM-CSF; test: cell-based or functional assay
human GM-CSF I117 [8] = target: T2, human GM-CSF I117; test: cell-based or functional assay; remark: listed apart in the source
human GM-CSF T117 [9] = target: T3, human GM-CSF T117; test: cell-based or functional assay; remark: listed apart in the source

Row | Binder | Fold improvement of 4K21 H93Y alone on macaca (IC50, TF-1 proliferation) (macaca GM-CSF [1]) [fold] | Fold improvement of humanized parental 4K21 on macaca (IC50, TF-1 proliferation) (macaca GM-CSF [1]) [fold] | Fold macaca/human I117 (IC50, TF-1 proliferation) (macaca GM-CSF [1]) [fold] | IC50, inhibition of GM-CSF induced TF-1 proliferation (32 pM GM-CSF) (macaca GM-CSF [1]) [pM] | Fold improvement of 4K21 H93Y alone on I117 (IC50, TF-1 proliferation) (human GM-CSF I117 [2]) [fold] | Fold improvement of humanized parental 4K21 on I117 (IC50, TF-1 proliferation) (human GM-CSF I117 [2]) [fold] | IC50, inhibition of GM-CSF induced TF-1 proliferation (32 pM GM-CSF) (human GM-CSF I117 [2]) [pM] | Fold human T117/I117 (IC50, TF-1 proliferation) (human GM-CSF T117 [3]) [fold] | Fold improvement of 4K21 H93Y alone on T117 (IC50, TF-1 proliferation) (human GM-CSF T117 [3]) [fold] | Fold improvement of humanized parental 4K21 on T117 (IC50, TF-1 proliferation) (human GM-CSF T117 [3]) [fold] | IC50, inhibition of GM-CSF induced TF-1 proliferation (32 pM GM-CSF) (human GM-CSF T117 [3]) [pM] | binding result (human GM-CSF A117 mutant) | further results
1 | B1 | 1.8 | 15 | 3 | 54 | 1.6 | 6.7 | 18 | 1 | 9.5 | 77 | 18 | binds | –
2 | B2 | 1 | 8 | 3.2 | 96 | 1 | 4.1 | 30 | 5.8 | 1 | 8 | 172 | – | Fold improvement of humanized parental 4K21 (IC50, TF-1 proliferation) (macaca GM-CSF [4]): 5 fold; Fold macaca/human I117 (IC50, TF-1 proliferation) (macaca GM-CSF [4]): 2.6 fold; IC50, inhibition of GM-CSF induced TF-1 proliferation (32 pM GM-CSF) (macaca GM-CSF [4]): 111 pM; Fold improvement of humanized parental 4K21 (IC50, TF-1 proliferation) (human GM-CSF I117 [5]): 2.3 fold; IC50, inhibition of GM-CSF induced TF-1 proliferation (32 pM GM-CSF) (human GM-CSF I117 [5]): 42 pM; Fold human T117/I117 (IC50, TF-1 proliferation) (human GM-CSF T117 [6]): 3.7 fold; Fold improvement of humanized parental 4K21 (IC50, TF-1 proliferation) (human GM-CSF T117 [6]): 6 fold; IC50, inhibition of GM-CSF induced TF-1 proliferation (32 pM GM-CSF) (human GM-CSF T117 [6]): 154 pM
3 | B3 | 2.6 | 21 | 1.1 | 37 | 0.9 | 3.6 | 33 | 1.4 | 3.6 | 30 | 47 | – | –
4 | B4 | 2.2 | 18 | 1.2 | 44 | 0.8 | 3.2 | 37 | 1.2 | 3.7 | 30 | 46 | – | –
5 | B5 | 4 | 33 | 1.2 | 24 | 1.5 | 6 | 20 | 1.7 | 5 | 41 | 34 | binds | IC50, inhibition of GM-CSF induced IL-8 secretion in U937 cells (65 pM GM-CSF) (macaca GM-CSF [7]): 232 pM; IC50, inhibition of GM-CSF induced IL-8 secretion in U937 cells (65 pM GM-CSF) (human GM-CSF I117 [8]): 267 pM; IC50, inhibition of GM-CSF induced IL-8 secretion in U937 cells (65 pM GM-CSF) (human GM-CSF T117 [9]): 177 pM
6 | B6 | 1.2 | 10 | 2.1 | 82 | 0.8 | 3.1 | 39 | 0.9 | 5.1 | 42 | 34 | binds | –
